For the assay, the target named is MBP-Brh2 (U. maydis). The experiment in a line: pull-down.

The substance “hexahistidine (His)-tagged Dss1 (natural protein)” had a fold lower level of Dss1 in the DNA-bound fraction than with Brh2Δ362–493::OB-AB greater than 20 fold.

The values are drawn from article PMC3617921.
